Molecular target: LssaCA-His (L. striatellus salivary carbonic anhydrase lacking the signal peptide, C-terminal His tag) (Laodelphax striatellus)
Test: MST; 10 µM LssaCA^sp- (His-fusion) labelled with NT-647 (RED-NHS), added to serially diluted GST-NP or MBP-OsTLP^sp-; initial concentration 40 µM, 0.1% (v/v) Tween 20; Monolith NT.115; KD Fit

Substance | Kd
MBP-OsTLP (Oryza sativa thaumatin-like protein without its signal peptide, N-terminal MBP fusion) (enzyme) | 1.3 µM
GST-NP (rice stripe virus nucleocapsid protein, GST fusion) (natural protein) | 2.7 µM

Reference: article PMC12774414
